The source of these data is publication PMC3386289, “Isolation of Human Mitotic Protein Phosphatase Complexes: Identification of a Complex between Protein Phosphatase 1 and the RNA Helicase Ddx21” (PLoS ONE, 2012).

The test concerns the target T1, His6-Ddx21_(motif2) (human, UniProt Q9NR30 1-783, motif2 (aa440–444) -RTIIF- to -RTAIA-).
T1 construct: Site-directed mutagenesis of pRSET-A-DDX21; also called mut2; (aa440–444: motif2); source: E. coli DH5α, purified (SP-Sepharose, Ni-NTA)
T1 sequence (looked up): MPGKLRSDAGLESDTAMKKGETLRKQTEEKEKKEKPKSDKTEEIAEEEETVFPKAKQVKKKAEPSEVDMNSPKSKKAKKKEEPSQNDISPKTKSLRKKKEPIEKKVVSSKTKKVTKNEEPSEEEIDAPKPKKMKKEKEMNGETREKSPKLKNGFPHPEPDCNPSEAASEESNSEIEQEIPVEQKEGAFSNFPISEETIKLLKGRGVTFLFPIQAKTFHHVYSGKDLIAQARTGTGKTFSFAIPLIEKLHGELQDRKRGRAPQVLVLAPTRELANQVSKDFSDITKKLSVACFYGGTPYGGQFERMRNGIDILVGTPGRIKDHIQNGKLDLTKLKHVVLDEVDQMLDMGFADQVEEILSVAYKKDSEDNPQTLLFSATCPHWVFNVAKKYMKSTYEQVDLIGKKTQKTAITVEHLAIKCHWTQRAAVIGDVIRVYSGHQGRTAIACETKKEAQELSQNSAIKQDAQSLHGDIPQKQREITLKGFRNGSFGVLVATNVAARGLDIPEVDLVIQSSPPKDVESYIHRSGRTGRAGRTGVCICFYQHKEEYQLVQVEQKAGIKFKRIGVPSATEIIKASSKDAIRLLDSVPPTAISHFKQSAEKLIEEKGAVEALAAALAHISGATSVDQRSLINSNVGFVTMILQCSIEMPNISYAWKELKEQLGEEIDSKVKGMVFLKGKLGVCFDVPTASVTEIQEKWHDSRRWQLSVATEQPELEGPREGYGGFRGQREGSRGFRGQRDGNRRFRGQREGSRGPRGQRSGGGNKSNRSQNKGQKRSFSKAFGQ
As to the kind of experiment: pull-down; 300 ng PP1 and 200 ng His6-Ddx21 in 25 mM Tris pH 7.5, 5% glycerol, 150 mM NaCl, 0.5% Igepal630, 10 mM imidazole, 4°C; Ni-NTA beads; wash 450 mM NaCl, 0.5% Tween-20 (γ: 500 mM NaCl, 0.75% Tween-20); western blot. As to conditions: both partners purified. (In general: In western blotting, separated proteins are transferred to a membrane and probed.)

B1: PP1β, bacterially expressed and purified (enzyme, human, UniProt P62140 1-327, looked up)
chain: MADGELNVDSLITRLLEVRGCRPGKIVQMTEAEVRGLCIKSREIFLSQPILLELEAPLKICGDIHGQYTDLLRLFEYGGFPPEANYLFLGDYVDRGKQSLETICLLLAYKIKYPENFFLLRGNHECASINRIYGFYDECKRRFNIKLWKTFTDCFNCLPIAAIVDEKIFCCHGGLSPDLQSMEQIRRIMRPTDVPDTGLLCDLLWSDPDKDVQGWGENDRGVSFTFGADVVSKFLNRHDLDLICRAHQVVEDGYEFFAKRQLVTLFSAPNYCGEFDNAGGMMSVDETLMCSFQILKPSEKKAKYQYGGLNSGRPVTPPRTANPPKKR
notes: Protein phosphatase 1 catalytic subunit, isoform β, human; also called protein phosphatase 1 beta
For B1, the binding result is recorded as “binds”.
